± gives the uncertainty stated by the source.
Experiment: amyloid nucleation score (Sup35N fusion, yeast selection) (log enrichment); library NNK3; higher = more nucleation; inactive = no reads after selection
Outline: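 The nucleation score is a DiMSum log enrichment of output over input reads, centred on the mode score of non-aggregating sequences. Sequences under 100 input reads were excluded, and reads came from Illumina sequencing of plasmid inserts. Psi-negative yeast expressing Sup35N fused to peptides of 20 random codons were induced with 100 μM copper sulfate for 24 hours and grown 7 days at 30°C on medium lacking adenine and uracil. Random libraries had three technical output replicates.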

Substance | amyloid nucleation score
RCSCCCCNALANDRRVCMVE | inactive
TCSHVYQTYAVKAASKNIMI | inactive
SAYRVKMHKRRKAESVLGFR | inactive
TGYCYMILLRNGVQVSVEGT | 0.092 ± 0.81
PWGLGNSARCWCFFMGHCEA | -0.889 ± 2.5
CEYCFGMTSLTAWWCYVLRC | inactive
QEWKQWLMSWTSRKAFSLKS | inactive
NWKLYWYNVSCL | 1.65 ± 0.067
RMLPRLQDAR | inactive
VVVSSYNCVLVQVVICKWGR | 0.192 ± 0.85
WYLSYSTIAFHYWEFYGYAD | inactive
FFFLNSWVFYVLMNNDIVCA | inactive
NFFESLMVMSDKASLSVMK | inactive
GATNDH | inactive
GGYRVGFYQY | inactive
NFFSA | -0.51 ± 0.73
SRHRNYHFCRILQCGFERSW | -0.526 ± 0.93
FVFIVCMCSSTWAQMYGLNW | 1.25 ± 0.084
HIVLVSRLHITAGGRF | -0.179 ± 0.65
ASVRSGYDMVGFGILFGQMS | inactive
SHSWQLSYSKSRYVIDAIAR | inactive
IKMNNDGSMILWSLSSPTDL | inactive
AGGSLWKAL | inactive

Substance | amyloid nucleation score
GTYLVSDAAGFYSWYLHYSF | inactive
IQISYNWW | 0.75 ± 0.3
RFESHSL | inactive
WFLFRINQFKL | inactive
LYYMKVIGTFRISEAILLYL | inactive
VSESSFRLCGGLRSGCLKSA | inactive
VIWGTPQFSFAEVREFDLVH | inactive
GCGRTEMNVSMSGPSRMVDL | inactive
TWSMNIIMCLNRQVDQGFSL | 1.82 ± 0.075
VFLNWRGMNHSLRAFNIESQ | inactive
FSLLCFRSWANPIVTMYKYY | inactive
ICSFRTWA | 0.978 ± 0.1
LTNTLAYTVRKKTFQIGLLC | inactive
LVWRTSINSLRMVEDNRDEV | inactive
GVDFEDQPSSQDFLYSARYL | inactive
HITVNRSKGFDGSRTAPFQM | inactive
LKFLLRNILVRYYMDVGPVS | inactive
SSDGFCLVIVYVCPSWYMLV | inactive
FLKYTITHLCSRPRIYLGIS | 0.16 ± 0.22
VLCCANKYSFTNQQSGSASE | 0.952 ± 0.1
YIYWQRTTSRVLERSVILNV | inactive
FEHPHGGVNS | inactive
HTYDCAAFCPAGAGNR | inactive

Substance | amyloid nucleation score
VVNIRDATWAFKLLCGEAHV | inactive
CKAESLWFNGLF | inactive
FQMVA | inactive
CKLRLWSEFSLVTSRSIYIA | inactive
FVTSVQVRFNMGFFAELFAV | inactive
RHFDSMTINLYTTSLTFFAN | inactive
TENKSMSFFNYDRAYARIL | inactive
VQSKMCVKYFWGRHTRHQLG | inactive
DSSDVVSVLVLSEMCAALVT | inactive
LYAKF | inactive
RNNDVSEVKMLMKRELGFYN | inactive
VGCIRGNGFVTQQATGY | inactive
CHDLLHVVIEIPVCFLCTKG | 0.807 ± 0.18
CTGCTFRYEKKDYNLGCLCK | inactive
HKITVNLS | inactive
RYDLIVKVVVSGESVSTWCC | inactive
LSCDGNRGTVFVIRIFSGDV | 2.62 ± 0.078
TFWFD | inactive
YAFLTYFSKVIDSVF | 1.33 ± 0.076
WETFPHSFINVLIWDSFELV | inactive
SYRKEFSVPMATGDDSTPQH | inactive
TFPRERWDCPCKVIFRSVTP | inactive
SVHPGTRG | inactive

Substance | amyloid nucleation score
DLRVPLNTFRNYHVSRELVR | inactive
VASVWLDIPMYLFSQLRTKT | inactive
CKGLIFISSFANVVLN | 1.52 ± 0.12
QSLHSYNRSESCSLGSSFWI | inactive
MFVVYLGYRRAVIDNDALED | inactive
GSATCAS | inactive
LSVSYTLALTALLRHRERVW | inactive
EYGLNFSLNGYLSH | 0.601 ± 0.32
VSFEFEIRESSGISCM | inactive
SLSLNIQGSNYFLHIVNIGR | inactive
VDRDSWSVPFCALQKHRMQK | inactive
PREARQHRVRRTGFSVVFVS | inactive
IYVLNLMLFVFCRNVLCDGY | inactive
LRGKDN | inactive
NCNIWIEVQFTASDVIISWV | 1.69 ± 0.066
YGGNSIY | inactive
SGVTHDHLTYVLGGGKVVSR | inactive
HIEVCGTLLYCGDRQISVNN | 0.49 ± 0.27
SFLGLMSMEELITS | inactive
VLGMNEPCSFW | inactive
NTCKRYGEVI | 2.2 ± 0.058
LPSDSGYTGYHVWTLKSTCD | inactive
SILGFT | inactive

Substance | amyloid nucleation score
DRHSRCQ | inactive
VPRMSALRESFHKDNS | inactive
CRQSVCFGAVC | inactive
SLKCLLLVMTCSLTSHAPPA | inactive
LFGYSNSRRHMIGMQSY | inactive
IIFIF | 1.3 ± 0.14
NYWSTQLSIFCCKDCATTSA | 2.42 ± 0.063
VRCKVMSSAAATVFFVSGAV | inactive
FFRQQKYSVCLFGGTFIWVV | inactive
IWWVSK | inactive
LMRSREEGAPSDRRSQAYED | inactive
TWWSLGSVELVLWFKSCCDF | 1.44 ± 0.083
YWQHWWL | inactive
TLGIWRDYSYKTILRRWDDR | inactive
NLVSVSRSYIKCVDRHRRTA | inactive
RYVGAVWYYTMNIVNYNSFI | 1.7 ± 0.06
CMVSSVKLNFIYIGYGDSGW | inactive
VNMMRDVVIDKVLFLSSHVA | 1.48 ± 0.12
YDYTRCLLYFVALRYQGGNS | inactive
INFYVSFYIIVTCYVVAHCV | 1.32 ± 0.15
MFEMS | inactive
LLFEMWTWSTVSRRAGDVLS | inactive
GSPECPLVEV | inactive

Substance | amyloid nucleation score
WWTLKPGESVVRGLRVCGAP | inactive
KRRMRGALRVRVNSTHCWYV | inactive
LQSVMFLPICFLLT | inactive
PYFFTDLICSFKIGAYEQGS | inactive
VCFFRVKRSYSNIFYTRRCR | inactive
ILSYARTFVLIDNKVGMLR | inactive
ILGGGSIFKSRQNMIWYTLS | 0.207 ± 0.61
YVIYFSN | -0.389 ± 0.93
CYIMTYKSLNTF | inactive
VHLYEFRLNAACSCPSDRYG | inactive
SACNAPSLNSTLIVT | inactive
CVWAVGVFFGFMIQRQDEER | inactive
VMFIVNLY | 3.07 ± 0.08
MDSFRRDEYFKSLFVMLYLS | inactive
KLASLFNYCSERKN | inactive
CYTIRLWARLNLCRGIKS | -0.439 ± 1.1
FKKCVDLKHYNVSMDVRCVL | inactive
IGRLMA | inactive
DLSVWRALYNGLLQRASH | inactive
NGWYKVGLMA | inactive
RFYTSCVCHHLLIYYLIGSS | inactive
NLVRSDSVRFAYVKWGPMHG | inactive
HQPGSRLI | inactive

Substance | amyloid nucleation score
SYTSMFPRCQKIHLRQVRIS | inactive
SMRSGVLGHIIQTM | inactive
LTLCNPPTTRRTNATFLHCL | inactive
LCRSSMGPFGNLWEKQLYIW | inactive
GRLLRTMVD | inactive
SDFRVTPLLYE | inactive
EHIEIRSSFEVSPHTPNPAS | inactive
SLASYLFTVTATNRYCERGA | 0.996 ± 0.12
LSDVDPEFLFLLLFFP | inactive
TACLSVQMWFRFSVFSGVYL | inactive
FGIWCTIPWLLFRYSVDMFM | inactive
TFRIVRFCLKILTCRTC | inactive
AYSVYVFALYRLNFYVLLRN | inactive
CILKHSGR | inactive
LNLHSSLGMFASLGDMIRVT | inactive
VCDTM | inactive
FVANISFWFSVFNRVYESYT | 0.841 ± 0.1
VLRSANCCCGFD | inactive
IQDHFELFTNVGSYFQIQPL | inactive
DLVNVYVLPLVS | inactive
SVRRQHPFN | inactive

Source: the supplement of paper PMC12042874
